# Assay results reported in patent publication US7985567B2, “Host cells and methods for producing 3-methyl-2-buten-1-ol, 3-methyl-3-buten-1-ol, and 3-methyl-butan-1-ol” (The Regents of the University of California, priority 2007, dated 2011).
# B1: OYE3: Old yellow enzyme family reductase of S. cerevisiae, gene locus YPL171c (protein, UniProt P41816 2-400, looked up)
# NADPH dehydrogenase 3: PFVKGFEPISLRDTNLFEPIKIGNTQLAHRAVMPPLTRMRATHPGNIPNKEWAAVYYGQRAQRPGTMIITEGTFISPQAGGYDNAPGIWSDEQVAEWKNIFLAIHDCQSFAWVQLWSLGWASFPDVLARDGLRYDCASDRVYMNATLQEKAKDANNLEHSLTKDDIKQYIKDYIHAAKNSIAAGADGVEIHSANGYLLNQFLDPHSNKRTDEYGGTIENRARFTLEVVDALIETIGPERVGLRLSPYGTFNSMSGGAEPGIIAQYSYVLGELEKRAKAGKRLAFVHLVEPRVTDPSLVEGEGEYSEGTNDFAYSIWKGPIIRAGNYALHPEVVREQVKDPRTLIGYGRFFISNPDLVYRLEEGLPLNKYDRSTFYTMSAEGYTDYPTYEEAVDLGWNKN
# B2: OYE2: Old yellow enzyme family reductase of S. cerevisiae, gene locus YHR179w (protein, UniProt Q03558 2-400, looked up)
# NADPH dehydrogenase 2: PFVKDFKPQALGDTNLFKPIKIGNNELLHRAVIPPLTRMRAQHPGNIPNRDWAVEYYAQRAQRPGTLIITEGTFPSPQSGGYDNAPGIWSEEQIKEWTKIFKAIHENKSFAWVQLWVLGWAAFPDTLARDGLRYDSASDNVYMNAEQEEKAKKANNPQHSITKDEIKQYVKEYVQAAKNSIAAGADGVEIHSANGYLLNQFLDPHSNNRTDEYGGSIENRARFTLEVVDAVVDAIGPEKVGLRLSPYGVFNSMSGGAETGIVAQYAYVLGELERRAKAGKRLAFVHLVEPRVTNPFLTEGEGEYNGGSNKFAYSIWKGPIIRAGNFALHPEVVREEVKDPRTLIGYGRFFISNPDLVDRLEKGLPLNKYDRDTFYKMSAEGYIDYPTYEEALKLGWDKN
# Tested on: S. cerevisiae BY4741 transformed with pESC expressing a reductase candidate gene
# Experiment: Screening of reductase candidates for reduction of 3-methyl-2-butenol to 3-methyl-butanol
# Assay type: cell-based, Saccharomyces cerevisiae
# Conditions: 3-methyl-2-butenol 1 g/l; relative to controls; FIGS. 4 and 5
# Description: To identify enzymes with the capability to catalyze the reduction 3-methyl-2-butenol to 3-methyl-butanol the following assay system was employed. 5 ml of synthetic defined medium lacking leucine with 1.8% galactose and 0.2% glucose was inoculated with an overnight culture of S. cerevisiae BY4741 freshly transformed with a vector (pESC) expressing a reductase candidate gene to achieve a final absorbance of 0.5 at 600 nm (A600). The cultures were grown at 30° C. at 200 r.p.m. After 48 hours, 3-methyl-2-butenol (1 g/l) was added to the culture.
# Cultures were sampled for isopentanol production after addition of 3-methyl-2-butenol as described in Example 3.
row,Molecule,isopentanol production from 3-methyl-2-butenol by yeast over-expressing the reductase
1,B1,significant increase in isopentanol production
2,B2,significant increase in isopentanol production
